Laboratory results: the DeepSol protein solubility set

Experiment: soluble on expression in E. coli; label from the status in PepcDB or PDB records

Row | Sequence | soluble on expression in E. coli
1 | MKKTQLGRSFSKSFKQKKARASNASSDPFRFQNNGISYKGKLIGEQDVDKARGDAMCAEAMRTAKSIIKAAGAHKTRITLQINIDGIKVLDEKSGAVLHNFPVSRISFIARDSSDARAFGLVYGEPGGKYKFYGIKTAQAADQAVLAIRDMFQVVFEMKKKQIEQVKQQQIQDGGAEISSKKEGGVAVADLLDLESELQQIERGVQQLSTVPTNCDAFGASPFGDPFVDSFNSTATSNGTANMSGTQVPFGGLQLPQVQQMQMPMVQIPQQSHQNWPTSGAGSFDAWGQQQQQQQMHHAHSTPAFGTNGFSDTNPFASAFNTQARPPPLPTVAPTQYRDPFSVHSSAIPNSNIDWTGTGTTKENMAPSTNIQQQQSSLHHASTFANFGDNKAETWSEKKVTSLEEAFTKLVDMDALVGGQGIKETKKNPFEHILNPPKASLNSMSTTCSAAQMAATQQHTTSSHADPFGDDFFR | not soluble
2 | MKKVFDVWDVETAKRFLEVIRNETIYYPVLIALHTGMRAGEIVSLKWYDVNFEARIISVVKSVRNNRGLKTSDVKTKTSKRSVYINDVLFSELKNLYETIKPKPDDFVCPRLPTGNLTVGYLSKRFKLLVKRYNFPVIRFHDLRHTFATLMLSLGVNTKIVAEILGHSDIKLTADTYSHVLPTMQESAMKEFSKLWKLEHHHHHH | not soluble
3 | MKKVKSIGLIETLGMVGVVEAADAALKAANVTLLGYEFNGAGYMVIKLTGDVAAVKAAVSSGAATAQKLGNLVAAHVIPRPDDQVIDTEICGKDNVPPFNGSDSEPEDGKPSGSSSEKESKESTETAVKASEPKPATATADKEEAPLEKAAPEAKDAKDTKEAPAKQASKPEAKTKSSKPTASEAKNASSPKTPEKQADSGKTAPAKTDGGNKPKSRK | not soluble
4 | MKKVSIIIPFKGQTEAELMLPLSSIYNQIGVDLSQLDIHLVNDGGKTIDLSKFDVLADRLEIHYHEIPNGGPGVARQYGIDNSISEYIMFIDADDVLYYVGALWPFYNASNQGHQMIRASYWEQIAGNPYTYTVHGNGDRKAAYGKWYKRSYIEMLGLRFMPDLPIYEDTYFVGLACELATDTCFLEEKVYMWLANPNSITRTVENKFNYQAHIYARENRYWFEMIRKWKPECLEHHHHHH | soluble
5 | MKKVTKSIKREGSPSDEEYTLEEDPIEFELEKMERGSSNGESEEESQRDQKQADSIIDDMVEQNDQEQEAAGEQDVERENDLRKMYELSLLPPAAIAAQIQQMEKEIYELSQWEARELIRSKHLRIFGNCRRRANKLEHHHHHHH | not soluble
6 | MKKYIITAFAFITLLTGSVTFTACEDIDDIKELNLDRLLSPTNLTARVRDKVNIELTWDEMDRAQSYVIEVFKEDPDFTGTAISTLESEKATYTVTGLEGETSYSIRVKSVAEGITDSKWVSATRSTDAEQILLEVAEEDLTASEVTLRWPAGQVATEIIITPNDVAAHRVTSDEIAAGAATIKNLKSETTYTATLKNGDKTRGTMVFTTLINLDGALPAYPGDNLATIIATAEANATIVLLPKDDNNSFIYTDESGTAKTLEIELTKDVTIKGLYAENRPTTNIKFVLSGCNNFKIENLNLTASDGGTIITVLDSKGGNITVTNCDVTGFGSLLVENDNTQTGTINTFTVDNCIFHDMASGKRFVDYQKKKSFIAEFTLKNSTFYNCCSGSDFIRFDRHSTKGNIINISNCTLYGIEATSKGLFYVRSNSVGNKDFTANITKCIFANMSNKVFFSQDTKTDNLTFNSNYYFEAPSLLSIPEGGAGKVVDATGVTLDPGFTDAANGNFKVSNQTIIDNEIGDPRWRK | soluble
7 | MKKYLILVGSPPACGKTYVSGELAKRLNNPVYLDKDTVIPLSKMVFKAANQPYNRDSDFFKEYVRDAEYIVTFDLAFESLNYNNCVIVNAPFSKEFRDKGYMNNLKNKLKKYNAELIPVWVSCDIDVCHKRMIKRNSDRDTWKLNNWDEYVKGQNYTTPDLEGLFVVDNSSNEDFEAGLKKLLEKVLLEHHHHHH | soluble
8 | MKLAARVESVSPSMTLIIDAKAKAMKAEGIDVCSFSAGEPDFNTPKHIVEAAKAALEQGKTRYGPAAGEPRLREAIAQKLQRDNGLCYGADNILVTNGGKQSIFNLMLAMIEPGDEVIIPAPFWVSYPEMVKLAEGTPVILPTTVETQFKVSPEQIRQAITPKTKLLVFNTPSNPTGMVYTPDEVRAIAQVAVEAGLWVLSDEIYEKILYDDAQHLSIGAASPEAYERSVVCSGFAKTYAMTGWRVGFLAGPVPLVKAATKIQGHSTSNVCTFAQYGAIAAYENSQDCVQEMLAAFAERRRYMLDALNAMPGLECPKPDGAFYMFPSIAKTGRSSLDFCSELLDQHQVATVPGAAFGADDCIRLSYATDLDTIKRGMERLEKFLHGIL | soluble
9 | MKLALLGRQALMGVMAVALVAGMSAKSFADEGLLNKVKERGTLLVGLEGTYPPFSFQGEDGKLTGFEVDFAEALAKHLGVKASLKPTKWDGMLASLDAKRIDVVINQVTISDVRKKKYDFSTPYTVSGIQALVKKGNEGTIKTAADLQGKKVGVGLGTNYEEWLRQHVQGVDIRTYDDDPTKYQDLRVGRIDAILVDRLAALDLVKKTKGTLAVTGDAFSRQESGVALRKGNEDLLKAVDNAIAEMQKDGTLKALSEKWFGADVTQ | not soluble
10 | MKLDKYTVGKRYGKALFELAVEKNQAEAIYQELLTLREVYHQVPGIGDILSDDRLEPYEKDSIMEKLVTGFSEMMQNFLRVVYEYRRMYDLLLMIDEYERRYDEHQGLILGSVTTAIPLSKEQHQAMEEKAAQLLGYEQAHLVNLIDPSIVGGVVIEANHQVIDGSIRKQLEHMQQKLLK | not soluble
11 | MKLEGVWKVFGNVVAVRDVNLYIEDKEFVSILGPSGSGKTTLLYLIAGIYKPSRGRIYFNDVDVTDLPPNKRNIGLVFQNYALYPHMTVYENIAFPLRLRNFGEPAIKEKVLSVAKLLGIEGLLDRYPAQLSGGQQQRVALARALVKEPEVLLLDEPLSNLDALLRIKIRSELKKLQKELGITAIYVTHDQSEALAMADRIAIIASGVIQQVGKPWDVYYKPRNVFVASFIGTPPANLVSVPLDSSRRCLLLPGGGRYCPPRRIAEKLAAVKTNSVILGFRPEVAVLSESPLGDYVSMEAEVYTVETLGRENIVTLLVNGSQVKVIVPPVVEPRPGSRIFINIEEDKVMYFDPETEINVEYLEVPGMEEAIAESAGTLRKQEMEEEWD | soluble
12 | MKLESLVEEARQCQDRTVAVAAAEDEEVIEAVAMALEHRLGRFVLYGDRERLGRLLKEKGCARFSDVDVVHANSIGQAAELAVRAVHLNEADALMKGHVPTATLLKAVLNKEYGLRTGKVLSHVAVFEVPEFDRFVIVTDAAMNIAPDLEQKAQIVNNAVSIARSIGIERPKVAALAAVETVNPAMPATVDAAALAMMQKRGQIEHCLLDGPLALDNAVSLAAAKHKRIESEVAGQADILLVPDIESGNMLYKSLVYFANARVGAVIAGAKAPIVLTSRADSAESKLYSLALAICSAAK | not soluble
13 | MKLIAESGSTRTEWALVEDNHLVQRVFTEGLNPFFQTRREISRSVRLGLPESFFKKKLDQVYYYGAGCSSYEKKNILGASLVAQFKTPIQVESDLLAAARGLFKCEAGIACILGTGSNSCFYDGKIIVKNVKAAGYILGDEGSGAVLGKLFLADLLKGLAPKELANEFHEKFRISVNDVMESVYNLPFPNRFLGTIAYFLGDYMDNEYVYNLLTNNLRSFFNRNVCQYDYINYPIRFVGSLAYAYPDILQEVAQEFGVEIDVIEETPMNGLIEFHSMNIEESMAGDPLEHHHHHH | not soluble
14 | MKLITAIVQDKDASSVANALVEHNIRATRLASAGGFLRSGNSTFLIAVKDDEVNTTIGVIKEHSKTRKQFVTPPVGLDMSIDTIGQPIEVEIGGATIIVQAIEDFQHF | not soluble
15 | MKLKAMYSFLSDDLAAVEEELERTVRSEYGPLGEAALHLLQAGGKRIRPVFVLLSARFGHYDFERIKHVAVALELIHMASLVHDDVIDDADVRRGRPTIKARWSNRFAMYTGDYLFARSLERMAELDSPRAHQVLAKTIVEVCHGEIEQIKDKYRFDQPLRTYLRRIRRKTALLIAASCQLGALAAGAPEAVANRLYWFGHCVGMSFQITDDILDFTGTEEQLGKPAGSDLQQGNVTLPVLYALCDEQVRAKITAVNADTDAEEMAAVLAAIKQTDAIERSYALSDRYLEKALRLLGELPANEARTLLHDLALYIGKRDY | not soluble
16 | MKLKTTLFGNVYQFKDVKEVLAKANELRSGDVLAGVAAASSQERVAAKQVLSEMTVADIRNNPVIAYEDDCVTRLIQDDVNETAYNQIKNWSISELREYVLSDETSVDDIAFTRKGLTSEVVAAVAKICSNADLIYGAKKMPVIKKANTTIGIPGTFSARLQPNDTRDDVQSIAAQIYEGLSFGVGDAVIGVNPVTDDVENLSRVLDTIYGVIDKFNIPTQGCVLAHVTTQIEAIRRGAPGGLIFQSICGSEKGLKEFGVELAMLDEARAVGAEFNRIAGENCLYFETGQGSALSAGANFGADQVTMEARNYGLARHYDPFIVNTVVGFIGPEYLYNDRQIIRAGLEDHFMGKLSGISMGCDCCYTNHADADQNLNENLMILLATAGCNYIMGMPLGDDIMLNYQTTAFHDTATVRQLLNLRPSPEFERWLESMGIMANGRLTKRAGDPSLFF | soluble
17 | MKLMKKNTDDGAKIYTPLTLKLYDWWVLGVSNRLAWGCPTKEHLLPHFLEHLGNNHLDIGVGTGFYLTHVPESSLISLMDLNEASLNAASTRAGESKIKHKISHDVFDPYPAALHGQFDSISMFYLLHCLPGNISTKSCVIRNAAQALTDDGTLYGATILGDGVVHNSFGQKLMRIYNQKGIFSNTKDSEEGLTHILSEHFENVKTKVKGTVVMFSASGKK | not soluble
18 | MKLRSVTYALFIAGLAAFSTSSLAAQSLRFGYETSQTDSQHIAAKKFNDLLQERTKGELKLKLFPDSTLGNAQAMISGVRGGTIDMEMSGSNNFAGLSPVMNLLDVPFLFRDTAHAHKTLDGKVGDDLKASLEGKGLKVLAYWENGWRDVTNSRAPVKTPADLKGLKIRTNNSPMNIAAFKVFGANPIPMPFAEVYTGLETRTIDAQEHPINVVWSAKFFEVQKFLSLTHHAYSPLLVVINKAKFDGLSPEFQQALVSSAQEAGNYQRKLVAEDQQKIIDGMKEAGVEVITDLDRKAFSDALGNQVRDMFVKDVPQGADLLKAVDEVQ | not soluble
19 | MKLTDRWFTSISEDEKGNIVFVNGRLELDEFRLSGKLKIRIEIRWPYEADEQGLPTESAGKRIEEIELLIRKAMEKDKLAIMTGNYTGGGTKYWVYYARTERVFGERLNEVLAPYETLPLEIECEVDTDWEEYLDMLSMKDENSI | not soluble
20 | MKMYADERREHIYSYIKSHKRATVKQLSDYLSVTEATVRSDLRRLESENKLTRTHGGAKVTENIGSKFNFSYRLTQKHGEKYKISKSALKKIKPQQCIMIDASSTTYELAKLLAETTMELTIITNGLENAVLLKENPHLTVLVVGGFVSQDSNAITGNIDSQILEMYHIDYFFLSANGFTLENGLTDFSLPEVQLKKQMVQESENVIALIDKSKFGVSSTLSFAKISDINEVITDEKPEHKWLKHVPFSVTVAQLEHHHHHH | soluble
21 | MKNASVITVGNEILKGRTVNTNAAFIGNFLTYHGYQVRRGFVVMDDLDEIGWAFRVALEVSDLVVSSGGLGPTFDDMTVEGFAKCIGQDLRIDEDALAMIKKKYGQADLTPQRLKMAKIPPSCRPIENPVGTAPGLICAVGGKKVIILPGVPKEMEALLKAMEKDIIIPDTHYYDDSVIIADVMESAFAPYVDRIMKEFDGIYVKSHPRNVEVKNPELEIEISGFGEDEAALRKKIEDAIARAGEYAVKLGGSVKR | not soluble
